Entries after “also recorded” stand apart in the source; their conditions may differ. Where two headings read alike, the source gives them in different places.
Columns and labels:
HBeAg = conditions: HepAD38 cells, 6-day time course
Experimental: In this Example 3, the effects of the presently designed polypeptides on HBV replication were analyzed, HepAD38 cells that expresses HBV under the control of a tetracycline promoter were used. HepAD38 cells were plated in the presence of TDF or candidate therapeutic (sdAb10-2) without tetracycline for three days to induce HBV production and to establish a cccDNA reservoir in the nuclei of infected cells. After three days, drugs/sdAbs were replenished and the media was replenished with tetracycline to suppress HBV transcripts being produced from the plasmid, so that only HBV markers be produced from the established cccDNA reservoir. Varying drug concentrations of—TDF and sdAb10-2 were used to determine drug toxicity (TD50) and efficacy during the 6-day time course.
The ability of the presently designed polypeptides to reduce HBeAg levels was also analyzed.

HBV = assay: supernatant HBV DNA in HepAD38 cells; type: cell-based; conditions: 6-day time course
From the text: Having regard to FIG. 12, TDF targets the HBV reverse transcriptase, thus only affecting the number virions secreted in the supernatant. In contrast, the presently designed polypeptides should affect cccDNA stability, which can be indirectly measured through levels. As expected, a significant decrease in supernatant HBV (2 log) was caused by TDF treatment. A significant, albeit lower, decrease in HBV supernatant DNA was also observed from sdAb10-2 treatment (0.5 log).

NTCP-HUH7 cells = assay: localization and entry into target cells (staining, microscopy); type: cell-based
From the text: The foregoing one or more modifications of the at least one polypeptide sdAb10 result in antiviral efficacy. […] Alternatively, the second and third rows shown in FIG. 7 provide that both polypeptides modified to include a cell penetrating peptide coding sequence entered the target cells (i.e. the nuclei and cytoplasm being visualized Hoescht stain and by fluorescently labelled anti-vinculin antibodies, respectively).

HBV cccDNA = assay: pulldown assay with Hirt-extracted cccDNA from explanted HBV infected liver; type: binding; conditions: for interaction with cccDNA: pulldown, cccDNA from explanted HBV infected liver; for replicates that picked up cccDNA: three replicates, nested PCR detection
Experimental: In this Example 1, binding studies for at least one of the presently designed polypeptides having at least one sdAb with HBV pre-core G-quadruplex were performed using patient derived samples. For example, two of the presently developed sdAbs, namely sdAb #8 (NB01) and sdAb #1 (NB07), were produced via E. coli expression system and purified via nickel bead affinity chromatography, then size exclusion chromatography (as described in more detail herein). Pulldown assays using Hirt-extracted cccDNA from explanted liver tissue (i.e. liver transplanted secondary to HCC from HBV) were performed.
Having regard to FIG. 8B, results are provided from the pulldown study using sdAbs-bound to magnetic nickel beads with Hirt-extracted, T5 exonuclease-digested cccDNA from an explanted HBV infected liver. Beads were incubated with the corresponding sdAbs comprising, in this Example, the presently developed sdAb8 and sdAb1, washed, and incubated with cccDNA. Excess cccDNA was removed (“xsDNA” lanes), followed by 4 washing steps (“4th Wash” lanes). The sdAbs were eluted and cccDNA was detected through nested PCR (“Elution” lanes). The first lane is the DNA marker highlighting the 150 bp fragment and the next two lanes represent the “sdAb only” elutions (sdAb8 and sdAb1). Subsequent sets of 3 represent the excess cccDNA (“xs”), last washes (“W”) and elutions (“E”) from the corresponding tubes. The last three lanes represent the PCR controls, with negatives from the direct (D) and nested (N) rounds.

[1] = tested on: wild-type G-quadruplex of HBV cccDNA pre-core promoter region; assay: phage ELISA assay (absorbance at 450 nm), wild-type vs mutant G-quadruplex; type: binding; conditions: for affinity for wild-type G-quadruplex structure of HBV cccDNA compared to mutant G-quadruplex structure: phage ELISA, WT vs MUT (G1748A)
From the text: According to embodiments, methods of developing and designing the present at least one novel polypeptide comprising at least one antiviral sdAb are provided. In some embodiments, the methods comprise accessing a fully synthetic phage-display library that codes for 3-billion sdAbs clones, enabling efficient selection of in vitro humanized antibodies against virtually any antigen. Advantageously, no animals or immunization are required, allowing the selection of sdAbs that can target unprocessed G-quadruplex, thereby overcoming conventional techniques of injecting animals to raise antibodies (such techniques known to alter antigen structures).
Having regard to FIG. 4B and Table 1 herein, the at least nine polypeptides having at least one sdAb are referred to as sdAbs 1, 4, 5, 6, 7, 8, 9, 10, and 11 and comprise an amino acid sequence represented as SEQ ID NOs: 9, 10, 11, 12, 13, 14, 15, 16, and 17, respectively.

[2] = tested on: HBV pre-core G-quadruplex; assay: MST binding study with HBV pre-core G-quadruplex
Experimental: In this Example, binding studies for at least one of the presently designed polypeptides having at least one sdAb (e.g. sdAb10M and sdAb1) with HBV pre-core G-quadruplex were performed.

[3] = tested on: HBV surface antigen (HBsAg); assay: HBsAg levels following exposure to the polypeptide; conditions: increased concentration from 50 μg/mL to 100 μg/mL
Experimental: Having regard to FIG. 5A, expression methods using a bacterial expression system (SDS-PAGE) yielded ˜3 mg of pure sdAbs from 1 L bacterial culture, where lane 1 represents the standard molecular weight marker and elution fractions are shown in lanes 2-6, indicating the presence of at least one polypeptides having at least one sdAb (between 18.4 kDa and 14.4 kDa markers). […] The foregoing confirms that the at least one polypeptide comprise at least one antiviral sdAb.

CC(C)OC(=O)OCOP(=O)(CO[C@H](C)Cn1cnc2c(N)ncnc21)OCOC(=O)OC(C)C.O=C(O)/C=C/C(=O)O [TDF, Tenofovir Disoproxil Fumurate, reference compound]
HBeAg levels (HBeAg): did not significantly decrease | decrease in supernatant HBV DNA (HBV): 2 log

B1: sdAb10-2: sdAb10 modified with CPP, NTCP-recognition and NLS sequences; full sequence SEQ ID NO: 20 (protein)
VHH: MAEVQLQASGGGFVQPGGSLRLSCAASGRTSKITSMGWFRQAPGKEREFVSAISWSNGLTNYYADSVKGRFTISRDNSKNTVYLQMNSLRAEDTATYYCASKIHTKPKWYWGQGTQVTVSSGGGGSGRKKRRQRRRPPQGGGGSNPLGFFPGGGGSDHQLDGGGGSPKKKRKVSSFLRNHHHHHH
modifications: Single-Domain Antibody 10-02
HBeAg levels (HBeAg): significantly decreased | entry into target cells (NTCP-HUH7 cells): enter the cell; also recorded: localize and enter the target hepatocyte cells | decrease in supernatant HBV DNA (HBV): 0.5 log

B2: sdAb10-1: sdAb10 modified with CPP, NTCP-recognition and NLS sequences; full sequence SEQ ID NO: 19 (protein)
VHH: GRKKRRQRRRPPQGGGGSMAEVQLQASGGGFVQPGGSLRLSCAASGRTSKITSMGWFRQAPGKEREFVSAISWSNGLTNYYADSVKGRFTISRDNSKNTVYLQMNSLRAEDTATYYCASKIHTKPKWYWGQGTQVTVSSGGGGSNPLGFFPGGGGSDHQLDGGGGSPKKKRKVSSFLRNHHHHHH
modifications: Single-Domain Antibody 10-01
entry into target cells (NTCP-HUH7 cells): enter the cell; also recorded: localize and enter the target hepatocyte cells

B3: sdAb8: single domain antibody, amino acid sequence SEQ ID NO: 14 (protein)
VHH: MAEVQLQASGGGFVQPGGSLRLSCAASGTTSGQTAMGWFRQAPGKEREFVSAISGHHTPRAYYADSVKGRFTISRDNSKNTVYLQMNSLRAEDTATYYCAWIRRKPQSWYWGQGTQVTVSS
modifications: Single-Domain Antibody 8
entry into target cells (NTCP-HUH7 cells; listed as sdAb08): do not enter the cells; also recorded: failed to enter target cells | interaction with cccDNA (HBV cccDNA): interacts with HBV cccDNA | replicates that picked up cccDNA (HBV cccDNA): two of the three replicates | affinity for wild-type G-quadruplex structure of HBV cccDNA compared to mutant G-quadruplex structure [1]: higher affinity for the wild-type G-quadruplex structure

B4: sdAb1: single domain antibody, amino acid sequence SEQ ID NO: 9; used as negative control (poor binder) (protein)
VHH: MAEVQLQASGGGFVQPGGSLRLSCAASGRTYRHSGMGWFRQAPGKEREFVSAISDDHNMESYYADSVKGRFTISRDNSKNTVYLQMNSLRAEDTATYYCAMTKWHGPGGPHWYWGQGTQVTVSS
modifications: Single-Domain Antibody 1
interaction with cccDNA (HBV cccDNA): did not interact with cccDNA | replicates that picked up cccDNA (HBV cccDNA): none of the replicates | interaction with pre-core G-quadruplex of cccDNA ([1]; FIG. 4): only weakly interacted with the G-quadruplex | affinity for wild-type G-quadruplex structure of HBV cccDNA compared to mutant G-quadruplex structure [1]: higher affinity for the wild-type G-quadruplex structure | interaction with HBV pre-core G-quadruplex [2]: did not interact with HBV pre-core G-quadruplex

B5: sdAb 4: single domain antibody, amino acid sequence SEQ ID NO: 10 (protein)
VHH: MAEVQLQASGGGFVZPGGSLRLSCAASGRTSKWYSMGWFRQAPGKEREFVSAISYRQNIRAYYADSVKGRFTISRDNSKNTVYLQMNSLRAEDTATYYCAATHSYLFKFPTHFPQPQDYWGQGTQVTVSS
modifications: Single-Domain Antibody 4
affinity for wild-type G-quadruplex structure of HBV cccDNA compared to mutant G-quadruplex structure [1]: higher affinity for the wild-type G-quadruplex structure

B6: sdAb 5: single domain antibody, amino acid sequence SEQ ID NO: 11 (protein)
VHH: MAEVQLQASGGGFVZPGGSLRLSCAASGRTSYHTNMGWFRQAPGKEREFVSAISSSPNAATYYADSVKGRFTISRDNSKNTVYLQMNSLRAEDTATYYCARTKYGRVMGHMWYWGQGTQVTVSS
modifications: Single-Domain Antibody 5
affinity for wild-type G-quadruplex structure of HBV cccDNA compared to mutant G-quadruplex structure [1]: higher affinity for the wild-type G-quadruplex structure

B7: sdAb 6: single domain antibody, amino acid sequence SEQ ID NO: 12 (protein)
VHH: MAEVQLQASGGGFVQPGGSLRLSCAASGTGFRHTAMGWFRQAPGKEREFVSAISGHASKQAYYADSVKGRFTISRDNSKNTVYLQMNSLRAEDTATYYCAFRRAEKIYGHPMAPQKLWYWGQGTQVTVSS
modifications: Single-Domain Antibody 6
affinity for wild-type G-quadruplex structure of HBV cccDNA compared to mutant G-quadruplex structure [1]: higher affinity for the wild-type G-quadruplex structure

B8: sdAb 7: single domain antibody, amino acid sequence SEQ ID NO: 13 (protein)
VHH: MAEVQLQASGGGFVQPGGSLRLSCAASGRTYRGETMGWFRQAPGKEREFVSAISWGWSNRAYYADSVKGRFTISRDNSKNTVYLQMNSLRAEDTATYYCASRHMRRAPWSGPGMSYWGQGTQVTVSS
modifications: Single-Domain Antibody 7
affinity for wild-type G-quadruplex structure of HBV cccDNA compared to mutant G-quadruplex structure [1]: higher affinity for the wild-type G-quadruplex structure

B9: sdAb 9: single domain antibody, amino acid sequence SEQ ID NO: 15 (protein)
VHH: MAEVQLQASGGGFVQPGGSLRLSCAASGRTSGHYSMGWFRQAPGKEREFVSAISGRGNSLSYYADSVKGRFTISRDNSKNTVYLQMNSLRAEDTATYYCAWWHRDSHPQSGKHMRYWGQGTQVTVSS
modifications: Single-Domain Antibody 9
affinity for wild-type G-quadruplex structure of HBV cccDNA compared to mutant G-quadruplex structure [1]: higher affinity for the wild-type G-quadruplex structure

B10: sdAb10: single domain antibody, amino acid sequence SEQ ID NO: 16 (protein)
VHH: MAEVQLQASGGGFVQPGGSLRLSCAASGRTSKITSMGWFRQAPGKEREFVSAISWSNGLTNYYADSVKGRFTISRDNSKNTVYLQMNSLRAEDTATYYCASKIHTKPKWYWGQGTQVTVSS
modifications: Single-Domain Antibody 10
affinity for wild-type G-quadruplex structure of HBV cccDNA compared to mutant G-quadruplex structure [1]: higher affinity for the wild-type G-quadruplex structure | HBsAg levels [3]: dose-dependent decrease in HBsAg levels

B11: sdAb 11: single domain antibody, amino acid sequence SEQ ID NO: 17 (protein)
VHH: MAEVQLQASGGGFVQPGGSLRLSCAASGFTSESTSMGWFRQAPGKEREFVSAISRWESTEEYYADSVKGRFTISRDNSKNTVYLQMNSLRAEDTATYYCAYRMHWGGRWRWNYWGQGTQVTVSS
modifications: Single-Domain Antibody 11
affinity for wild-type G-quadruplex structure of HBV cccDNA compared to mutant G-quadruplex structure [1]: higher affinity for the wild-type G-quadruplex structure
